B1: Ribonucleoside-diphosphate reductase subunit M2 B (Homo sapiens), Q7LG56-1 (parent)
chain: MGDPERPEAAGLDQDERSSSDTNESEIKSNEEPLLRKSSRRFVIFPIQYPDIWKMYKQAQASFWTAEEVDLSKDLPHWNKLKADEKYFISHILAFFAASDGIVNENLVERFSQEVQVPEARCFYGFQILIENVHSEMYSLLIDTYIRDPKKREFLFNAIETMPYVKKKADWALRWIADRKSTFGERVVAFAAVEGVFFSGSFAAIFWLKKRGLMPGLTFSNELISRDEGLHCDFACLMFQYLVNKPSEERVREIIVDAVKIEQEFLTEALPVGLIGMNCILMKQYIEFVADRLLVELGFSKVFQAENPFDFMENISLEGKTNFFEKRVSEYQRFAVMAETTDNVFTLDADF

Variants of: B1
Settings: with atm_human ATM

effect of a mutation on the interaction | Variant
decreasing interaction | MGDPERPEAAGLDQDERSSSDTNESEIKSNEEPLLRKSSRRFVIFPIQYPDIWKMYKQAQASFWTAEEVDLAKDLPHWNKLKADEKYFISHILAFFAASDGIVNENLVERFSQEVQVPEARCFYGFQILIENVHSEMYSLLIDTYIRDPKKREFLFNAIETMPYVKKKADWALRWIADRKSTFGERVVAFAAVEGVFFSGSFAAIFWLKKRGLMPGLTFSNELISRDEGLHCDFACLMFQYLVNKPSEERVREIIVDAVKIEQEFLTEALPVGLIGMNCILMKQYIEFVADRLLVELGFSKVFQAENPFDFMENISLEGKTNFFEKRVSEYQRFAVMAETTDNVFTLDADF [S72A]
